Laboratory results reported in article PMC4488944.

What was measured:
Assay in all cases: fluorescence polarisation
[1] = target: fluorescent peptide corresponding to the SH3 binding motif of FraC (Anabaena sp. strain PCC 7120)
[2] = target: fluorescent peptide corresponding to the SH3 binding motif of SepJ (Anabaena sp. strain PCC 7120)
[3] = target: SepJ peptide bearing proline-to-serine substitutions (Anabaena sp. strain PCC 7120)

Kd [1]: 12 µM | Kd [2]: 39 µM | Kd [3]: > 2 mM
Substance: His-tagged SjcF1 (All1861 without transmembrane domain) (domain or fragment)
